Like-named read-outs stand apart in the source and are kept apart here.
How the values were obtained:
[1] = molecular target: T1, human αVβ6 integrin on cells (human, UniProt P06756 31-1048; P18564 22-788); experiment: FACS titration on K562 cells expressing human αVβ6 (as Example 18); 95% CI ±15.9 pM
T1 construct: whole, on cells; Heterodimer on transfected cells (HEK 293, K562, 293T) or on αVβ6-positive tumour lines (HT29, Detroit-562); also called αVβ6 on HEK 293, K562, 293T-αVβ6, HT29, Detroit-562 cells

[2] = molecular target: T2, α4β1 integrin (on J6.77 cells) (UniProt P13612 34-1032; P05556 21-798, limits assumed); experiment: cell-based or functional assay
[3] = molecular target: T1, human αVβ6 integrin on cells; experiment: FACS, 293T-αVβ6 cells, antibody at 20 ug/ml
[4] = molecular target: T1, human αVβ6 integrin on cells; experiment: FACS, 293T-αVβ6 cells, antibody at 5 ug/ml
[5] = molecular target: T1, human αVβ6 integrin on cells; experiment: FACS titration on K562 cells expressing human αVβ6 (as Example 18)
[6] = molecular target: T1, human αVβ6 integrin on cells; experiment: FACS, 293T-αVβ6 cells, antibody at 1.25 ug/ml
[7] = molecular target: T1, human αVβ6 integrin on cells; experiment: cell-based or functional assay
[8] = molecular target: T3, α5β1 integrin (on K562 cells) (UniProt P08648 42-1049; P05556 21-798, limits assumed); experiment: cell-based or functional assay
[9] = molecular target: T4, human αV on parental A375M cells, which express αVβ3 and αVβ5, but not αVβ6 (human, UniProt P06756 31-1048); experiment: FACS, parental A375M cells (αVβ3, αVβ5)
T4 construct: whole, on cells; Two heterodimers (αVβ3, αVβ5) on one cell line; also called αVβ3 or αVβ5 integrins

[10] = molecular target: T5, mouse αV (HEK-293 cells transfected with mouse αV alone) (mouse, UniProt P43406 31-1044); experiment: FACS, HEK-293 transfected with mouse αV
T5 construct: whole, on cells; Single chain transfected into HEK-293 cells; also called Mouse alphaV

[11] = molecular target: T4, human αV on parental A375M cells, which …; experiment: cell-based or functional assay
[12] = molecular target: T2, α4β1 integrin (on J6.77 cells); experiment: cell-based or functional assay; remark: listed apart in the source
[13] = molecular target: T3, α5β1 integrin (on K562 cells); experiment: cell-based or functional assay; remark: listed apart in the source
[14] = molecular target: T1, human αVβ6 integrin on cells; experiment: cell-based or functional assay; remark: listed apart in the source
[15] = molecular target: T1, human αVβ6 integrin on cells; experiment: cell-based or functional assay; remark: listed apart in the source
[16] = molecular target: T1, human αVβ6 integrin on cells; experiment: FMAT, HEK 293 cells overexpressing αVβ6, supernatant
[17] = molecular target: T1, human αVβ6 integrin on cells; experiment: FACS titration on K562 cells expressing human αVβ6; 95% CI ±22.7 pM
soluble αVβ6 = molecular target: T6, soluble αVβ6 (human, UniProt P06756 31-992; P18564 22-709); experiment: Biacore, mAb captured on anti-human IgG, soluble αVβ6 injected, 1:1 fit
T6 construct: extracellular domain; also called soluble αVβ6 protein; soluble antigen

cynomolgus αVβ6 on cells = molecular target: T7, cynomolgus αVβ6 on cells (cynomolgus, UniProt A0A2K5WCD3 31-1048; A0A2K5TZ36 22-787); experiment: FACS, HEK-293 transfected with cynomolgus αV and β6
T7 construct: whole, on cells; also called macaque αVβ6; Mac AVB6

T1 sequence (P06756 31-1048, chain 1 of 2): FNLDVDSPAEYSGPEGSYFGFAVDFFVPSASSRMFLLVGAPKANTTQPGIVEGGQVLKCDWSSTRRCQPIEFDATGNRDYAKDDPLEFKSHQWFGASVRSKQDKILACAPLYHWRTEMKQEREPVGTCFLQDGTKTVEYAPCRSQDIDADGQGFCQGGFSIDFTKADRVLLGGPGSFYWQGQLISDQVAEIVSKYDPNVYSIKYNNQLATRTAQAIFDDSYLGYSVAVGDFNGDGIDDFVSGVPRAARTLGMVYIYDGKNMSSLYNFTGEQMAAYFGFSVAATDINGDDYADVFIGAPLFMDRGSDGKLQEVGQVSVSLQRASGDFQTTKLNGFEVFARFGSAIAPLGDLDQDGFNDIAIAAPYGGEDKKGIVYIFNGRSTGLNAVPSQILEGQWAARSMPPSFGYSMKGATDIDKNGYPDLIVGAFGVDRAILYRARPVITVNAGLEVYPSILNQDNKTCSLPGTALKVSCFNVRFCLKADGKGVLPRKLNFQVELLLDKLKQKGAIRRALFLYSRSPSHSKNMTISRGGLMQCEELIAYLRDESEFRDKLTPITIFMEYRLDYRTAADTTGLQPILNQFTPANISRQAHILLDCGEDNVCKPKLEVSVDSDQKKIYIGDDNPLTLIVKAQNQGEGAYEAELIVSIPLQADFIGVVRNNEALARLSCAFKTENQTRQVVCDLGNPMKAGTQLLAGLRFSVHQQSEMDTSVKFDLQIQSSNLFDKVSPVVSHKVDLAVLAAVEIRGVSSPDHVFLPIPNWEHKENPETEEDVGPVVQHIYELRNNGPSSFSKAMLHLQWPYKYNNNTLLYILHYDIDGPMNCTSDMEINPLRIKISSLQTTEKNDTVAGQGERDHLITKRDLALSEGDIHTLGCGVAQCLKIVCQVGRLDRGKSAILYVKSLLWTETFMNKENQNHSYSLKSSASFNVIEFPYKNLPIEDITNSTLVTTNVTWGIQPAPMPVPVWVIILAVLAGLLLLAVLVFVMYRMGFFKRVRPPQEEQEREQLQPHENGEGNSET
T1 sequence (P18564 22-788, chain 2 of 2): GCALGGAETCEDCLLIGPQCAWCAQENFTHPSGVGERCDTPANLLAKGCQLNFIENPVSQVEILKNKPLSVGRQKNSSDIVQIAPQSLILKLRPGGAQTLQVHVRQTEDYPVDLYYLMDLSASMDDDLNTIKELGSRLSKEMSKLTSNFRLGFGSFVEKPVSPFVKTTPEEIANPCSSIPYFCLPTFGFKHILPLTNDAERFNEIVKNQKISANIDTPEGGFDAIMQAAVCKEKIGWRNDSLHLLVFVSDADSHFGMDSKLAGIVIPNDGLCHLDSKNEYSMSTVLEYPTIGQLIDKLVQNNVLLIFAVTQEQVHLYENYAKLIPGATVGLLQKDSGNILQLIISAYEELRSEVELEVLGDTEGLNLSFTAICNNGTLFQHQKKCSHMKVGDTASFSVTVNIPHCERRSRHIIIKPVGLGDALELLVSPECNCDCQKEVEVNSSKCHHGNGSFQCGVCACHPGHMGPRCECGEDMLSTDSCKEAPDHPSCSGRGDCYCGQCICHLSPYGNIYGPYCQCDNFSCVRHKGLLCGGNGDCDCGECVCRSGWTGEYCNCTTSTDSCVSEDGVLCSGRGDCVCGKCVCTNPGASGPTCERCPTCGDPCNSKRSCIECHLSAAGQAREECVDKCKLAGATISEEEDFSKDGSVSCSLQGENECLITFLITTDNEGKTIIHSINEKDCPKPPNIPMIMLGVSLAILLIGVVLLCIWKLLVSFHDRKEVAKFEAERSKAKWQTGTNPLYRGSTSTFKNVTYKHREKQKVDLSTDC
T4 sequence (P06756 31-1048 A375M): as the sequence (P06756 31-1048, chain 1 of 2) above, with A345M counted along it
T3 sequence (P08648 42-1049 limits assumed, chain 1 of 2): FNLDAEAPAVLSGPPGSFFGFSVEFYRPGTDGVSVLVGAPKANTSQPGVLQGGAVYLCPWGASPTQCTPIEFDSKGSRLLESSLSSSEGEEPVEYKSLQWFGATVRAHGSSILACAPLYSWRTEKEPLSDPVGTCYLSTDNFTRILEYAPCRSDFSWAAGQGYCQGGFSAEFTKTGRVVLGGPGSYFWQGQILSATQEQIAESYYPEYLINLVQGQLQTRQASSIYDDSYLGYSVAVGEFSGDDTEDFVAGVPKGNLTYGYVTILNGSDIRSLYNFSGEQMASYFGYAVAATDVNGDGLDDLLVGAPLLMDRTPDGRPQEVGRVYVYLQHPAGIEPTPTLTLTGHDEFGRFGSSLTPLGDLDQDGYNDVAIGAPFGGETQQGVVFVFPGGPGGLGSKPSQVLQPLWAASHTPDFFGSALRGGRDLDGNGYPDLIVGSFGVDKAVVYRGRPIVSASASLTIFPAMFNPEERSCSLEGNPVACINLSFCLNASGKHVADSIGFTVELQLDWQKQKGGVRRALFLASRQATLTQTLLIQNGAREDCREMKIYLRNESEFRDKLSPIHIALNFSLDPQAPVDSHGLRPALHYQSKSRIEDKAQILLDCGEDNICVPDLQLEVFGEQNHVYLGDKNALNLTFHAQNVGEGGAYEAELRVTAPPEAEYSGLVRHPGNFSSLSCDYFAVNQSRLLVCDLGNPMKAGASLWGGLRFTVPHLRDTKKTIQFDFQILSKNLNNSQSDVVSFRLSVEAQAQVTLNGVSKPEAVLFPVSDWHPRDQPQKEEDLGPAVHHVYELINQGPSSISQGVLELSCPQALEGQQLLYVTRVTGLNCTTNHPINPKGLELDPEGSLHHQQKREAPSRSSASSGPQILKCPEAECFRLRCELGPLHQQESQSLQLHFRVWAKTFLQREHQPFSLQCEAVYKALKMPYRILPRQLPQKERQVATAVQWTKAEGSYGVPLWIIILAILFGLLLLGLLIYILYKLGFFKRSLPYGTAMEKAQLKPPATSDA
T3 sequence (P05556 21-798 limits assumed, chain 2 of 2): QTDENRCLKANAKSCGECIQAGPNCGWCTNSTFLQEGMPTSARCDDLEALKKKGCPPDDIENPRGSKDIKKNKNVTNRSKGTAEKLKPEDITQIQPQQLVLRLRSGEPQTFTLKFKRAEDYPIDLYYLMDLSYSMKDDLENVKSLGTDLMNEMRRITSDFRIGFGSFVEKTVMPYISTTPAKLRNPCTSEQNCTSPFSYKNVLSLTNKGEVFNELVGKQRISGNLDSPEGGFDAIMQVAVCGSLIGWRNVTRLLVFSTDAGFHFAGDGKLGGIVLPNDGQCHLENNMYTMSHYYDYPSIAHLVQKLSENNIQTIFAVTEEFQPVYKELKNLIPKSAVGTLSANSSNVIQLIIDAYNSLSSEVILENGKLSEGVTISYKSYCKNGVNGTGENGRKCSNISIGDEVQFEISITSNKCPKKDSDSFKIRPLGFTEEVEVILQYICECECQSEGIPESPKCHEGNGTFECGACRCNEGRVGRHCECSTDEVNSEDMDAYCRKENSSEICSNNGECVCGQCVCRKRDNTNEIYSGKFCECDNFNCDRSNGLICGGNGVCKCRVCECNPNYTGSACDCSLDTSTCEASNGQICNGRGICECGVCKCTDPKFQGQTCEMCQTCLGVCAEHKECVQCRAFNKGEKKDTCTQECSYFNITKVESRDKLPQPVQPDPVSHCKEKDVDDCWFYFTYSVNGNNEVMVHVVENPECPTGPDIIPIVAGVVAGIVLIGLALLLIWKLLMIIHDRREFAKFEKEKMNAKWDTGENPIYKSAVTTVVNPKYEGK
T5 sequence (P43406 31-1044): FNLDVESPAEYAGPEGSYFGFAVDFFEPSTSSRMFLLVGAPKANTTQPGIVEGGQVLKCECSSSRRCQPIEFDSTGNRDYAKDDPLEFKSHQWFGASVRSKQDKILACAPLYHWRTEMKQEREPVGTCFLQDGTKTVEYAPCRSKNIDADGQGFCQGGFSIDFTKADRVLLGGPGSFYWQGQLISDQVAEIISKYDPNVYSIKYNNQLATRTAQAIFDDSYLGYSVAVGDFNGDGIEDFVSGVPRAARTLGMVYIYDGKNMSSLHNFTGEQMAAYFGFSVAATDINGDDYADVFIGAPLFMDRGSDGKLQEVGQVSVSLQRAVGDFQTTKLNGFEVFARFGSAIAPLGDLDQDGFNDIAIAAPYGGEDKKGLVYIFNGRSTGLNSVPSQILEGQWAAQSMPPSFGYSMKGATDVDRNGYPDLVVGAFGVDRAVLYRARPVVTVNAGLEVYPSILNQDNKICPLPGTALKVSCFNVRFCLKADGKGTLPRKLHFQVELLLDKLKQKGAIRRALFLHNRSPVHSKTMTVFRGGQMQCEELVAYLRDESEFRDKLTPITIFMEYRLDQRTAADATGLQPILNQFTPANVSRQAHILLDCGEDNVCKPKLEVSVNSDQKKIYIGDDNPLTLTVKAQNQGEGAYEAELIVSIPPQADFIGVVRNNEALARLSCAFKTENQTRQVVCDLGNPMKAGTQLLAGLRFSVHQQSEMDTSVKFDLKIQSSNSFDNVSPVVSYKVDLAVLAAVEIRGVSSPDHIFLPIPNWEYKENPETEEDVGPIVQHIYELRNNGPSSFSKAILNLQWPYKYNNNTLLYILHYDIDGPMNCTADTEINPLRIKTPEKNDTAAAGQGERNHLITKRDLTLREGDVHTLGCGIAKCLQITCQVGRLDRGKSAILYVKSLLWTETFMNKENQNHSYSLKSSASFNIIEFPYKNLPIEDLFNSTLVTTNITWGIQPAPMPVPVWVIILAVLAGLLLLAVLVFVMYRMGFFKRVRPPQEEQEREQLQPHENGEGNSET

Percent Inhibition (J6.77 adhesion to CS-1 peptide of fibronectin, 5 ug/ml) [2] [%]	Geometric Mean Shift [3]	Geometric Mean Shift [4]	Geometric Mean Shift [6]	IC50, n = 1 (HT29 adhesion to TGFβLAP) [7] [mg/L]	IC50, n = 2 (HT29 adhesion to TGFβLAP) [7] [mg/L]	IC50, n = 3 (HT29 adhesion to TGFβLAP) [7] [mg/L]	% Inhibition (K562 adhesion to fibronectin) [8] [%]	Percent Inhibition (J6.77 adhesion to CS-1 peptide of fibronectin, 5 ug/ml) [12] [%]	Percent Inhibition (K562 adhesion to FN9-10 peptide of fibronectin, 5 µg/ml) [13] [%]	further results	Binder
-2	7240	6840	4890	0.013	0.013	0.039	6	–	–	Kd [1]: 0.0463 nM; Kd [5]: < 0.05 nM	sc 264 RAD (antibody, V domains shown, Variable domains only) VH: QVQLQESGPGLVKPSQTLSLTCTVSGGSISSGGYYWSWIRQHPGKGLEWIGYIYYSGRTYNNPSLKSRVTISVDTSKNQFSLKLSSVTAADTAVYYCARVATGRADYHFYAMDVWGQGTTVTVSS VL: SYELTQPSSVSVSPGQTARITCSGDVLAKKSARWFHQKPGQAPVLVIYKDSERPSGIPERFSGSSSGTTVTLTISGAQVEDEAAYYCYSAADNNLVFGGGTKLTVL
–	–	–	–	–	–	–	–	-15	-12	% Cells Shifted [9]: 24%; GeoMean [9]: 1.79; percent of cells shifted [10]: 4%; Percent Inhibition (A375M adhesion to osteopontin peptide, 5 µg/ml) [11]: 3%	sc 133 (antibody, V domains shown) VH: QVQLVQSGAEVKKPGASVKVSCKASGYTFTGYYMHWVRQAPGQGLEWMGWINPKSGDTNYAQKFQGRVTLTRDTSTSTAYMELSRLRSDDTAVYYCARRLDVWGQGTTVTVSS VL: QSVLTQPPSVSAAPGQKVTISCSGSSSNIGNNYVSWYQQLPGTAPKLLIYDNNKRPSGIPDRFSGSKSGTSATLGITGLQTGDEADYYCGTWNSSLSAGYVFGTGTKVTV
2	–	–	–	0.125	0.157	0.064	-5	-10	5	Assay 1 % Inhibition (HT29 adhesion to TGFβLAP) [14]: 99%; Assay 2 % Inhibition (HT29 adhesion to TGFβLAP) [14]: 103%; Average % Inhibition (HT29 adhesion to TGFβLAP) [14]: 101%; Estimated IC50, n = 1 (HT29 adhesion to TGFβLAP) [15]: 0.041 mg/L; Estimated IC50, n = 2 (HT29 adhesion to TGFβLAP) [15]: 0.026 mg/L; FMAT Count [16]: 127; FMAT FL1 [16]: 628; FMAT FL1 × Count [16]: 79800; Kd [17]: 0.0519 nM; Kd (soluble αVβ6): 21.2 nM; GeoMean (cynomolgus αVβ6 on cells): 23.9	sc 188 (antibody, V domains shown) VH: QVQLQESGPGLVKPSQTLSLTCTVSGGSISSGVYYWTWIRQHPGNGLEWIGYIYYSGSTSYNPSLKSRVTISVDTSKKQFSLNLTSVTAADTAVYYCAREGPLRGDYYYGLDVWGQGTTVTVSS VL: EIVLTQSPGTLSLSPGERATLSCRAGQTISSRYLAWYQQKPGQAPRPLIYGASSRATGIPDRFSGSGSGTDFTLTISRLEPEDFAVYYCQQYGSSPRTFGQGTKVEIK
-6	6760	6820	4530	0.022	0.024	0.067	-8	–	–	–	sc 188 SDM (antibody, V domains shown, Variable domains only) VH: QVQLQESGPGLVKPSQTLSLTCTVSGGSISSGVYYWTWIRQHPGNGLEWIGYIYYSGSTSYNPSLKSRVTISVDTSKKQFSLKLTSVTAADTAVYYCAREGPLRGDYYYGLDVWGQGTTVTVSS VL: EIVLTQSPGTLSLSPGERATLSCRAGQTISSRYLAWYQQKPGQAPRPLIYGASSRATGIPDRFSGSGSGTDFTLTISRLEPEDFAVYYCQQYGSSPRTFGQGTKVEIK
